{"source": "patent US20030049702", "proteins": {"B1": {"name": "in vitro translated pro-Casp8 (from pcDNA3Flag-pro-Casp8) (protein)", "chain": "MDFSRNLYDIGEQLDSEDLASLKFLSLDYIPQRKQEPIKDALMLFQRLQEKRMLEESNLSFLKELLFRINRLDLLITYLNTRKEEMERELQTPGRAQISAYRVMLYQISEEVSRSELRSFKFLLQEEISKCKLDDDMNLLDIFIEMEKRVILGEGKLDILKRVCAQINKSLLKIINDYEEFSKERSSSLEGSPDEFSNGEELCGVMTISDSPREQDSESQTLDKVYQMKSKPRGYCLIINNHNFAKAREKVPKLHSIRDRNGTHLDAGALTTTFEELHFEIKPHDDCTVEQIYEILKIYQLMDHSNMDCFICCILSHGDKGIIYGTDGQEAPIYELTSQFTGLKCPSLAGKPKVFFIQACQGDNYQKGIPVETDSEEQPYLEMDLSSPQTRYIPDEADFLLGMATVNNCVSYRNPAEGTWYIQSLCQSLRERCPRGDDILTILTEVNYEVSNKDDKKNMGKQMPQPTFTLRKKLVFPSD"}}, "key": {"[1]": {"biological_target": "T1, in vitro translated FADD (from pcDNA3-Flag-FADD), Q13158", "T1 chain": "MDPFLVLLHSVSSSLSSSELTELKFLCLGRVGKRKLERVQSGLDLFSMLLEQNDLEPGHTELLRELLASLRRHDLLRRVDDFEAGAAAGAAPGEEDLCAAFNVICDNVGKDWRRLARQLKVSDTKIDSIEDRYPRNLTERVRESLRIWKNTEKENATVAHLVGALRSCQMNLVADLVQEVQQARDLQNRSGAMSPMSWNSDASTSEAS"}}}
{"protein": "B1", "values": [{"measurement": "caspase-8 activity (cleavage of Ac-IETD-AFC) in vitro", "setting": "[1]", "result": "˜3-fold increase in caspase-8 activity"}, {"measurement": "caspase-8 activity (cleavage of Ac-IETD-AFC) in vitro", "setting": "DAP3-His6", "result": "increased protease activity by ˜5-fold"}, {"measurement": "caspase-8 activity (cleavage of Ac-IETD-AFC) in vitro, DAP3 and FADD added together", "setting": "DAP3-His6", "result": "˜10-fold increase in caspase-8 activity"}]}
